# Assay results taken from publication PMC2119678 (The Journal of Cell Biology, 1993).
# B1: transgelin (natural protein)
# chain: MANKGPSYGMSREVQSKIEKKYDEELEERLVEWIVVQCGPDVGRPDRGRLGFQVWLKNGVILSKLVNSLYPDGSKPVKVPENPPSMVFKQMEQVAQFLKAAEDYGVTKTDMFQTVDLFEGKDLAAVQRTLMALGSLAVTKNDGHYRGDPNWFMKKAQEHKREFTESQLQEGKHVIGLQMGSNRGASQLAGHSILPRLPHTQPCSSFSPGQASRLRH
# Target: actin from rabbit skeletal muscle (F actin) (rabbit, UniProt P68135 1-377)
# Assay: co-sedimentation
binder,measurement,value
B1,stoichiometry N,6 actin monomers per transgelin
